The record followed here is article PMC11470950.

In the data set the target is T1, RVFV nucleoprotein (N) (Rift Valley fever virus, UniProt D3K5I7 1-245).
T1 sequence: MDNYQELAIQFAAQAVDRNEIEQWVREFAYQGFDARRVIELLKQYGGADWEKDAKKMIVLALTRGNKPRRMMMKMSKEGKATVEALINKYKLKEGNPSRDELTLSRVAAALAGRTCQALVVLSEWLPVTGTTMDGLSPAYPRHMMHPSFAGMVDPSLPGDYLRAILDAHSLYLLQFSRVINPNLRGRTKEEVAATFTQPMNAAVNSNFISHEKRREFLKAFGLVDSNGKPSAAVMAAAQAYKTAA
Put plainly: fluorescence bead binding assay.
CAGAAAAAGTGCCGACCGAACGATGTGTAAGCGCTATGAGA (ssDNA) [RV-5] had a Kd of 41 nM. This counts as double-digit nanomolar.
As to AGATGTCCTGCGTCGAGACACTTCTGCATTACTACGTTGG (ssDNA) [RV-3 (RVF 3)], the Kd was found to be 18.6 nM.
The figure for CTCCAGCGTAAACTACTGAAGACTGTGCCGGAAAGATC (ssDNA) [RV-2 (RVF 2)] is 15.4 nM.

The Kd is the concentration at which binding is half-saturated. Low values mean tighter binding, high ones weaker binding.
